In patent US20230355708A1 (priority 2020, published 2023):
Changes are numbered by the printed parent chain. In names and notes the source's numbering stands. Entries after “also recorded” stand apart in the source; their conditions may differ.

B1: CVN: lectin cyanovirin-N, SEQ ID NO:1 (protein)
chain: LGKFSQTCYNSAIQGSVLTSTCERTNGGYNTSSIDLNSVIENVDGSLKWQPSNFIETCRNTQLAGSSELAAECKTRAQQFVSTKINLDDHIANIDGTLKYE
B2: P51G-CVN: mutant CVN wherein Pro 51 is mutated to Gly, SEQ ID NO:3 (protein)
chain: B1 chain with P51G

What was measured:
SARS-CoV-2 pseudoviruses [1] = assay type: cell-based
SARS-CoV-1 pseudoviruses [2] = assay type: cell-based
HIV-1 pseudovirus [3] = assay type: cell-based
SARS-CoV-2 pseudoviruses [4] = test system: SARS-CoV-2 pseudoviruses
SARS-CoV-1 pseudoviruses [5] = test system: SARS-CoV-1 pseudoviruses
HIV-1 pseudovirus [6] = test system: HIV-1 pseudovirus
SARS-CoV-2 pseudoviruses [7] = assay type: cell-based; remark: listed apart in the source
SARS-CoV-1 pseudoviruses [8] = assay type: cell-based; remark: listed apart in the source
[9] = target: SARS-CoV-2 spike S1 subunit (Severe acute respiratory syndrome coronavirus 2, UniProt P0DTC2)
[10] = target: SARS-CoV-2 spike S2 subunit (Severe acute respiratory syndrome coronavirus 2, UniProt P0DTC2)
gp120 = gp120 (Human immunodeficiency virus type 1 group M subtype B, UniProt P35961); conditions: SPR
[11] = target: receptor binding domain (RBD) (Severe acute respiratory syndrome coronavirus 2, UniProt P0DTC2)

Row | Molecule | inhibition of SARS-CoV-2 pseudovirus infection (SARS-CoV-2 pseudoviruses [1]) | inhibition of SARS-CoV-1 pseudovirus infection (SARS-CoV-1 pseudoviruses [2]) | inhibition of HIV-1 infection (HIV-1 pseudovirus [3]) | virolysis of SARS-CoV-2 pseudoviruses (SARS-CoV-2 pseudoviruses [4]) | virolysis of SARS-CoV-1 pseudoviruses (SARS-CoV-1 pseudoviruses [5]) | virolysis of HIV-1 (HIV-1 pseudovirus [6]) | virolysis of Env Neg pseudovirus (Env Neg pseudovirus) | irreversible inactivation of SARS-CoV-2 (SARS-CoV-2 pseudoviruses [7]) | irreversible inactivation of SARS-CoV-1 (SARS-CoV-1 pseudoviruses [8]) | binding of S1 to lectin [9] | stability of lectin-S2 complexes [10] | stoichiometry of binding, S2 versus S1 [10] | binding to gp120 (gp120) | binding to receptor binding domain (RBD) [11] | binding to S1 subunit [9] | binding to S2 subunit [10]
1 | B1 | inhibited infection at nanomolar potencies | inhibition | inhibition | more potent than CVN-DLI; also recorded: capable of causing cell-free virolysis | no virolytic effect | no virolytic effect | no virolytic effect | irreversible inactivation | irreversible inactivation | Relatively lower binding | very stable | higher to the S2 subunit | occurred | no binding | – | –
2 | B2 | decreased inhibition of infection | – | – | reduced virolysis | – | – | – | – | – | – | – | – | – | – | reduced affinity as compared to CVN | reduced affinity as compared to CVN
